Results reported in patent publication US20230072640A1 (published 2023).

Target: recombinant YFV E protein (Meridian Life Science) (Yellow fever virus, UniProt P03314 286-679)
Assay: ELISA

Sequence of recombinant YFV E protein (Meridian Life Science) (P03314 286-679): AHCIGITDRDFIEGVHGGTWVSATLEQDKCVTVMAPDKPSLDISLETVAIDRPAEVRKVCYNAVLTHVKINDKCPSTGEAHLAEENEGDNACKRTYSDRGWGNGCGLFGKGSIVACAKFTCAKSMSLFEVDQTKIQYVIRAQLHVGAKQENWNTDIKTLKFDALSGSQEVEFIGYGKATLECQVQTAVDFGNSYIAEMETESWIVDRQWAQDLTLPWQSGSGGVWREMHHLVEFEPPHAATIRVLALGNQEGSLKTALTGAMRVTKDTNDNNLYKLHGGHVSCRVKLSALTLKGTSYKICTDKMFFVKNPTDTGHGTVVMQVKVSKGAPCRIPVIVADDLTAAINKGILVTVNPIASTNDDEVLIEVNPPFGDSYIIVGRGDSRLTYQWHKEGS

B1: human monoclonal antibody YFV-121 (antibody, V domains shown)
VH: EVQLVESGGGLVQPGGSLRLSCAASGFTFSSYSMNWVRQAPGKGLEWVSYISSSSRTIYYADSVKGRFTISRDNAKNSLDLQMNSLRDEDTAVYYCAREVSSHGYRYWGQGTLVTVSS
VL: EIVLTQSPATLSLSPGERATLSCRASQSVSSFLAWYQQKPGQAPRLLIYDASNRATGIPARFTGSGSGTDFTLTISSLEPEDFAVYYCQQRSNWPPWTFGQGTKVEIK
Which EC50 does the source give for B1 here?
The EC50 was 0.311 µg/mL.

B2: human monoclonal antibody YFV-136 (antibody, V domains shown)
VH: QVQLQESGPGLVKPSGTLSLTCAVSGGSISSSNWWSWVRQPPGKGLEWIGDIYHSGSTSYNPSLKSRVTISVDRSKNQFSLKLSSVTAADTAVYYCARAPLVNWYYFDYWGQGTLVTVSS
VL: QSVLTQPPSVSAAPGQKVTISCSGSSSNIGNNYVSWYQQLPGTAPKLLIYDNNKGPSGIPDRFSGSKSGTSATLGITGLQTGDEADYYCGTWDTSLSAGRVFGGGTKLTVL
Which EC50 does the source give for B2 here?
Its EC50 is 0.27 µg/mL.
